From US20260092093A1 (TJ BIOPHARMA SHANGHAI, published 2026) come the findings set out here.

One test deals with T1, hIL-18BP-hFc (human, UniProt O95998 31-194, limits assumed).
T1 sequence (looked up): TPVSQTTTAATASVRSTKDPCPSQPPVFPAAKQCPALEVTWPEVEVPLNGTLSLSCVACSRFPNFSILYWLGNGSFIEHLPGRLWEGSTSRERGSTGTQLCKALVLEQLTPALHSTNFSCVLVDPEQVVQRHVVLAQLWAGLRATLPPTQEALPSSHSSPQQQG
Kind of test: cell-based or functional assay.

Test [1] addresses T2, hIL-18 receptor (hIL-18Rα and hIL-18Rβ) (human, UniProt Q13478 19-541; O95256 20-599).
T2 sequence (looked up) 1: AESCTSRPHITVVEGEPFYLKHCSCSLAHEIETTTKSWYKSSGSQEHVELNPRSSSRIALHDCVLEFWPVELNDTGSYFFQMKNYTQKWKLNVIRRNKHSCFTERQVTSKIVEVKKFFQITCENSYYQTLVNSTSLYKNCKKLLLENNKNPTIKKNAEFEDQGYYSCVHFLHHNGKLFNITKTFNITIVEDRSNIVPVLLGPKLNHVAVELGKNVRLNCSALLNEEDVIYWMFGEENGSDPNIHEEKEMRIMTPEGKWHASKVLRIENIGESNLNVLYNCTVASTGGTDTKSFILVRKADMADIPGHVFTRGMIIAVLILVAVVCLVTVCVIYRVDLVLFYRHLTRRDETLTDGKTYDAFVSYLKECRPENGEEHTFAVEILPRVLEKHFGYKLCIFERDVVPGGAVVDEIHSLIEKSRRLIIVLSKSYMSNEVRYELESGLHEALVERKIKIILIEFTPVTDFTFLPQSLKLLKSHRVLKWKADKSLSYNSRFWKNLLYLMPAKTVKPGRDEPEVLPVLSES
T2 sequence (looked up) 2: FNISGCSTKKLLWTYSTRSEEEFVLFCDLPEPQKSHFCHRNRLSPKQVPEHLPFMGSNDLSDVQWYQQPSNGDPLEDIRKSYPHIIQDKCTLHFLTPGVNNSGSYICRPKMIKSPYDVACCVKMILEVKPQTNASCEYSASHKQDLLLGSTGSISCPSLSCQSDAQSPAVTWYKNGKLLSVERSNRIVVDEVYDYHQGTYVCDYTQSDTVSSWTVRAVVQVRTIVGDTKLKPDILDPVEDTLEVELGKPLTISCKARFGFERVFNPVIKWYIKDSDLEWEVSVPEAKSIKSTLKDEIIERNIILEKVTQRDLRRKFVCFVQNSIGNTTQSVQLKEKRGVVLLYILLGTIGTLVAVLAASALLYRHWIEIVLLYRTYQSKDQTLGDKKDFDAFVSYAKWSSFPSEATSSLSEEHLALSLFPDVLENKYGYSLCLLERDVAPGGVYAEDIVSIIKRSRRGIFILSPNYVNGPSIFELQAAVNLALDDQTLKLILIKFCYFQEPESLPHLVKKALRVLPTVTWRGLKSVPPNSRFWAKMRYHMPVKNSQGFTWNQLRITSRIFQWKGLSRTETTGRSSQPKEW
Kind of test: cell-based or functional assay.

Test [2] addresses T3, recombinant hIL-18Rα extracellular domain (human, UniProt Q13478 22-329, biotin label (selection) or fluorescent probe (single-clone FACS), sites not given).
T3 construct: extracellular domain; also called hIL-18Rα ECD; hIL-18Rα-ECD
T3 sequence (looked up): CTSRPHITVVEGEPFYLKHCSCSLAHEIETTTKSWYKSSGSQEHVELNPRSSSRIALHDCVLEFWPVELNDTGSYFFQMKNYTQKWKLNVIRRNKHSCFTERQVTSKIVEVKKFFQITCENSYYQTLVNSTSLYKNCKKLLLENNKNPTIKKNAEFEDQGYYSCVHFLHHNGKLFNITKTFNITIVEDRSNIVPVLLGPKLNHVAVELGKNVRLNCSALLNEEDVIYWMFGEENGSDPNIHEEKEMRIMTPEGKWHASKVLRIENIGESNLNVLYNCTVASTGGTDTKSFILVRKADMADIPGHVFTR
The experiment in a line: single-clone FACS, yeast display, 10 nM labelled hIL-18Rα ECD. In short, it runs like this:
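Yeast clones displaying IL-18 variants (screening rounds 4 and 5), at equal density, incubated with 10 nM fluorescently labelled hIL-18Rα ECD, then washed. Fraction of fluorescence-positive binding cells per clone measured by flow cytometry.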

For test [3], the target named is T4, hIL-18Rα ECD-Fc fusion protein (human, UniProt Q13478 22-329).
T4 construct: extracellular domain; captured on Protein A sensor
T4 sequence (looked up): T3 sequence (looked up)
Kind of test: BLI (Octet RED96), hIL-18Rα ECD-Fc on Protein A sensor. How it is done: The affinities of IL-18 variant polypeptides for hIL-18Rα were assessed by Biolayer Interferometry (BLI) on Octet RED96 using Protein A sensor coated with hIL-18Rα ECD-Fc fusion protein, and WT hIL-18 was used as a control.
On the technique in general: In BLI a coated tip is dipped into the sample, and binding shifts an interference pattern.

Residue numbers refer to the chain shown, from its start.

B1: IL-18 variant polypeptide M27 (ligand)
chain: YFPKLRSKLSVIRNLNDQVLFIDQGNRPLFEDMTDSDCRDNAPRTIFIISMYKHSYTRGMAVTISVKCEKISTLSCENKIISFKEMNPPDVIKDTKSDIIFFQYSVPGHDNKMQFESSSYEGYFLACEKERDLFKLILKKEDELGDRSIMFTVQNED
Regarding B1, in the test with hIL-18BP-hFc, the “EC50 (nM) in the Presence of 1 µg/mL hIL-18BP-hFc, hIL-18 reporter assay” value (“EC50 (nM) in the Presence” below) was 0.26 nM and the “EC50 Fold Change (+BP/-BP), hIL-18 reporter assay” value (shortened to “EC50 Fold Change (+BP/-BP)”) worked out at 1.44 fold. The “EC50 (nM), hIL-18 reporter assay” value in test [1] came out at 0.18 nM.

B2: IL-18 variant polypeptide M37 (ligand)
chain: B1 chain with R6G, H54Q, Y56V, T57W, V91N, Y104R
As to B2, in the test with hIL-18BP-hFc, the “EC50 (nM) in the Presence” value stood at 0.33 nM and the “EC50 Fold Change (+BP/-BP)” value is 2.36 fold. Moreover, the “EC50 (nM), hIL-18 reporter assay” value in test [1] worked out at 0.14 nM.

B3: IL-18 variant polypeptide M28 (ligand)
chain: B1 chain with R6A, H54W, Y56G, T57G
Consider B3, for which, in the test with hIL-18BP-hFc, the “EC50 (nM) in the Presence” value worked out at 0.042 nM and the “EC50 Fold Change (+BP/-BP)” value was determined as 2.33 fold. Moreover, the “EC50 (nM), hIL-18 reporter assay” value in test [1] was determined as 0.018 nM.

B4: IL-18 variant polypeptide M31 (ligand)
chain: B1 chain with Y56I, T57H, V91I
Regarding B4, in the test with hIL-18BP-hFc, the “EC50 (nM) in the Presence” value is 0.18 nM and the “EC50 Fold Change (+BP/-BP)” value was found to be 0.72 fold. Besides, the “EC50 (nM), hIL-18 reporter assay” value in test [1] worked out at 0.25 nM.

B5: IL-18 variant polypeptide M34 (ligand)
chain: B1 chain with Y56R, T57N, Y104E
As for B5, in the test with hIL-18BP-hFc, the “EC50 (nM) in the Presence” value came to 0.9 nM and the “EC50 Fold Change (+BP/-BP)” value is 1.27 fold. Besides, the “EC50 (nM), hIL-18 reporter assay” value in test [1] turned out to be 0.71 nM.

B6: IL-18 variant polypeptide M30 (ligand)
chain: B1 chain with R6L, Y56T, T57V, V91S, Y104R
As for B6, in the test with hIL-18BP-hFc, the “EC50 (nM) in the Presence” value turned out to be 1.7 nM and the “EC50 Fold Change (+BP/-BP)” value was 0.68 fold. Further, the “EC50 (nM), hIL-18 reporter assay” value in test [1] is 2.5 nM.

B7: IL-18 variant polypeptide M30 (ligand)
chain: B1 chain with R6L, Y56T, T57V, V91S, Y104R
By Kd is commonly meant the concentration at which binding is half-saturated. For orientation: koff means the first-order rate constant of dissociation. As a reminder, the kon is a measure of how fast the partners come together. A higher kon goes with fast association. As to B7, the “% of fluorescence positive cells” value in test [2] turned out to be 0.46%. In test [3], the Kd was 30.2 nM, the “Response (nm)” value was determined as 0.0275 nm, the koff is 0.0389 s⁻¹ and the kon is 1.29e+06 M⁻¹ s⁻¹.

B8: IL-18 variant polypeptide M37 (ligand)
chain: B1 chain with R6G, H54Q, Y56V, T57W, V91N, Y104R
As for B8, the “% of fluorescence positive cells” value in test [2] came to 95.4%. For the same molecule, in test [3], the Kd is 21.8 nM, the “Response (nm)” value worked out at 0.222 nm, the koff is 0.00883 s⁻¹ and the kon was found to be 404000 M⁻¹ s⁻¹.

B9: IL-18 variant polypeptide M28 (ligand)
chain: B1 chain with R6A, H54W, Y56G, T57G
For B9, the “% of fluorescence positive cells” value in test [2] worked out at 83.4%. Also, in test [3], the Kd turned out to be 30.4 nM, the “Response (nm)” value was found to be 0.178 nm, the koff came to 0.00966 s⁻¹ and the kon was 318000 M⁻¹ s⁻¹.

B10: IL-18 variant polypeptide M39 (ligand)
chain: B1 chain with H54W, Y56P, T57G, Y104L
Regarding B10, the “% of fluorescence positive cells” value in test [2] came out at 76.5%. Also, in test [3], the Kd stood at 20.6 nM, the “Response (nm)” value was determined as 0.0605 nm, the koff was 0.0221 s⁻¹ and the kon amounted to 1.07e+06 M⁻¹ s⁻¹.

B11: IL-18 variant polypeptide M33 (ligand)
chain: B1 chain with P3E, R6H, H54R, Y56T, T57H, V91N, Y104R
B11: the “% of fluorescence positive cells” value in test [2] was found to be 0.17%. Further, in test [3], binding was put at a Kd of 595 nM, the “Response (nm)” value came to 0.0257 nm, the off-rate (koff) stood at 0.0957 s⁻¹ and the kon was 161000 M⁻¹ s⁻¹.

B12: IL-18 variant polypeptide M31 (ligand)
chain: B1 chain with Y56I, T57H, V91I
Consider B12, for which the “% of fluorescence positive cells” value in test [2] came out at 69%. In addition, in test [3], the Kd worked out at 54.1 nM, the “Response (nm)” value was determined as 0.0947 nm, the koff worked out at 0.0189 s⁻¹ and the kon turned out to be 349000 M⁻¹ s⁻¹.

B13: IL-18 variant polypeptide M34 (ligand)
chain: B1 chain with Y56R, T57N, Y104E
In the case of B13, in test [2], the “% of fluorescence positive cells” value turned out to be 87.5%. In test [3], the Kd came to 32.8 nM, the “Response (nm)” value worked out at 0.084 nm, the koff stood at 0.0166 s⁻¹ and the kon was determined as 505000 M⁻¹ s⁻¹.

B14: IL-18 variant polypeptide M32 (ligand)
chain: B1 chain with R6G, H54S, Y56S, T57R, V91N, Y104R
For B14, the “% of fluorescence positive cells” value in test [2] amounted to 4.21%. In test [3], the Kd worked out at 17.3 nM, the “Response (nm)” value is 0.0381 nm, the koff turned out to be 0.0234 s⁻¹ and the kon was determined as 1.36e+06 M⁻¹ s⁻¹.

B15: IL-18 variant polypeptide M40 (ligand)
chain: B1 chain with P3D, R6K, H54P, Y56S, T57W, V91W, Y104R
On to B15, for which the “% of fluorescence positive cells” value in test [2] was 39.6%. Also, in test [3], the affinity, expressed as Kd, was 32.6 nM; the “Response (nm)” value worked out at 0.161 nm; the koff came to 0.0121 s⁻¹; the kon worked out at 371000 M⁻¹ s⁻¹.

B16: IL-18 variant polypeptide M35 (ligand)
chain: B1 chain with H54G, Y56G, T57A, V91G, Y104R
Turning to B16, the “% of fluorescence positive cells” value in test [2] worked out at 92.9%. In test [3], the Kd was 34.1 nM, the “Response (nm)” value was 0.129 nm, the koff was determined as 0.0156 s⁻¹ and the kon was determined as 456000 M⁻¹ s⁻¹.

B17: IL-18 variant polypeptide M38 (ligand)
chain: B1 chain with R6S, H54W, Y56G, T57A, Y104I
In the case of B17, the “% of fluorescence positive cells” value in test [2] came to 79.5%. In addition, in test [3], the Kd was determined as 120 nM, the “Response (nm)” value was found to be 0.0307 nm, the koff is 0.0334 s⁻¹ and the kon was 278000 M⁻¹ s⁻¹.

B18: IL-18 variant polypeptide M26 (ligand)
chain: B1 chain with Y56D, T57K
Regarding B18, in test [2], the “% of fluorescence positive cells” value was found to be 96.7%. Further, in test [3], the Kd came to 57.1 nM, the “Response (nm)” value was determined as 0.0917 nm, the koff turned out to be 0.0119 s⁻¹ and the kon was found to be 207000 M⁻¹ s⁻¹.

B19: IL-18 variant polypeptide M29 (ligand)
chain: B1 chain with R6M, H54F, Y56D, T57R, V91P, Y104R
Regarding B19, in test [2], the “% of fluorescence positive cells” value is 0.18%. For the same molecule, in test [3], the affinity, expressed as Kd, was 83.9 nM; the “Response (nm)” value is 0.0323 nm; the koff was determined as 0.0612 s⁻¹; the kon is 730000 M⁻¹ s⁻¹.

B20: IL-18 variant polypeptide M27 (ligand)
chain: B1 chain
On to B20, for which, in test [2], the “% of fluorescence positive cells” value came to 77.7%. In test [3], the affinity, expressed as Kd, was 45.9 nM; the “Response (nm)” value was determined as 0.0836 nm; the koff came to 0.00756 s⁻¹; the on-rate constant (kon) amounted to 165000 M⁻¹ s⁻¹.
